Blank lines part the entries; values can stand above or below the binder they belong to.
Target: T1, HLA-A*02:01 (human)
T1 construct: MHC monomers first loaded with a UV-sensitive peptide (not identified) that is cleaved by UV light and exchanged for the test peptide; captured on streptavidin plates, detected with anti-β2m; also called peptide-receptive MHC molecules; MHC class I
Experiment: UV-ligand exchange + anti-b2m ELISA; peptide exchange yield grade (+ >=10%, ++ >=20%, +++ >=50, ++++ >=75%)
Description: Candidate peptides for T cell based therapies according to the present invention were further tested for their MHC binding capacity (affinity). The individual peptide-MHC complexes were produced by UV-ligand exchange, where a UV-sensitive peptide is cleaved upon UV-irradiation, and exchanged with the peptide of interest as analyzed. Only peptide candidates that can effectively bind and stabilize the peptide-receptive MHC molecules prevent dissociation of the MHC complexes. To determine the yield of the exchange reaction, an ELISA was performed based on the detection of the light chain (β2m) of stabilized MHC complexes. The assay was performed as generally described in Rodenko et al. (Rodenko et al., 2006).
96 well MAXISorp plates (NUNC) were coated over night with 2 ug/ml streptavidin in PBS at room temperature, washed 4× and blocked for 1h at 37° C. in 2% BSA containing blocking buffer. Refolded HLA-A*02:01/MLA-001 monomers served as standards, covering the range of 15-500 ng/ml. Peptide-MHC monomers of the UV-exchange reaction were diluted 100 fold in blocking buffer. Samples were incubated for 1 h at 37° C., washed four times, incubated with 2 ug/ml HRP conjugated anti-β2m for 1h at 37° C., washed again and detected with TMB solution that is stopped with […]. Absorption was measured at 450 nm. Candidate peptides that show a high exchange yield (preferably higher than 50%, most preferred higher than 75%) are generally preferred for a generation and production of antibodies or fragments thereof, and/or T cell receptors or fragments thereof, as they show sufficient avidity to the MHC molecules and prevent dissociation of the MHC complexes.

Binder: ALDGHLYAV (source gene KBTBD11) [ALDGHLYAV (SEQ ID NO: 71)]
peptide exchange yield: 50 to 75%

Binder: FLLSLIDRL (source gene EGLN3) [FLLSLIDRL (SEQ ID NO: 7)]
peptide exchange yield: 50 to 75%

Binder: GLFHKQVTV (source gene PDZD2) [GLFHKQVTV (SEQ ID NO: 74)]
peptide exchange yield: 50 to 75%

Binder: IIYGGSVTGA (source genes TPI1, TPI1P1) [IIYGGSVTGA (SEQ ID NO: 65)]
peptide exchange yield: 20 to 50%

Binder: GLASFKSFL (source gene RGS5) [GLASFKSFL (SEQ ID NO: 8)]
peptide exchange yield: 20 to 50%

Binder: FTLEKNFVI (source gene COL6A2) [FTLEKNFVI (SEQ ID NO: 90)]
peptide exchange yield: 20 to 50%

Binder: GLLQGKLALL (source gene NQO2) [GLLQGKLALL (SEQ ID NO: 86)]
peptide exchange yield: 20 to 50%

Binder: FLIKSINLV (source gene KBTBD3) [FLIKSINLV (SEQ ID NO: 75)]
peptide exchange yield: 50 to 75%

Binder: GLIEDHFDVTV (source gene ERAP1) [GLIEDHFDVTV (SEQ ID NO: 63)]
peptide exchange yield: 20 to 50%

Binder: ILHHKVYDL (source gene CYB5A) [ILHHKVYDL (SEQ ID NO: 94)]
peptide exchange yield: 20 to 50%

Binder: GLAPHLEQI (source gene IPO4) [GLAPHLEQI (SEQ ID NO: 99)]
peptide exchange yield: 20 to 50%

Binder: FVMSEIRTV (source gene ZNF618) [FVMSEIRTV (SEQ ID NO: 85)]
peptide exchange yield: 50 to 75%

Binder: FLFRDILEL (source gene DROSHA) [FLFRDILEL (SEQ ID NO: 92)]
peptide exchange yield: 50 to 75%

Binder: GLDGIPFTV (source gene TRIP6) [GLDGIPFTV (SEQ ID NO: 73)]
peptide exchange yield: 50 to 75%

Binder: ILLQKPDSV (source gene RGS5) [ILLQKPDSV (SEQ ID NO: 9)]
peptide exchange yield: 20 to 50%

Binder: ILADLLPSL (source gene DHRS7B) [ILADLLPSL (SEQ ID NO: 69)]
peptide exchange yield: 20 to 50%

Binder: HIYDKAFITV (source gene FLT1) [HIYDKAFITV (SEQ ID NO: 101)]
peptide exchange yield: 20 to 50%

Binder: ALADIVWRA (source gene FAM188B) [ALADIVWRA (SEQ ID NO: 79)]
peptide exchange yield: 50 to 75%

Binder: ALLDTVVQA (source genes CACNA1I, CACNA1H) [ALLDTVVQA (SEQ ID NO: 78)]
peptide exchange yield: 20 to 50%

Binder: GVMAGDIYSV (source gene PLIN2) [GVMAGDIYSV (SEQ ID NO: 93)]
peptide exchange yield: ≥ 75%

Further lines, results first:

peptide exchange yield: 20 to 50%
Binder: MLLSSLVSL (source gene VKORC1) [MLLSSLVSL (SEQ ID NO: 91)]

peptide exchange yield: 20 to 50%
Binder: KLTDVGIATL (source gene ALPK2) [KLTDVGIATL (SEQ ID NO: 95)]

peptide exchange yield: 20 to 50%
Binder: LLDVLAPLV (source gene COL18A1) [LLDVLAPLV (SEQ ID NO: 67)]

peptide exchange yield: 20 to 50%
Binder: TLAELHISL (source gene NLRC5) [TLAELHISL (SEQ ID NO: 88)]

peptide exchange yield: 50 to 75%
Binder: KLASMLETL (source gene PRKCDBP) [KLASMLETL (SEQ ID NO: 80)]

peptide exchange yield: 50 to 75%
Binder: SLLQATDFMSL (source gene THY1) [SLLQATDFMSL (SEQ ID NO: 82)]

peptide exchange yield: 50 to 75%
Binder: TLAETLVNL (source gene ANKRD52) [TLAETLVNL (SEQ ID NO: 96)]

peptide exchange yield: 20 to 50%
Binder: SLLLAVTEV (source gene JAG2) [SLLLAVTEV (SEQ ID NO: 89)]

peptide exchange yield: 20 to 50%
Binder: SLLPALPKL (source gene LRP2) [SLLPALPKL (SEQ ID NO: 81)]

peptide exchange yield: 20 to 50%
Binder: TLLKTIIKV (source gene CC2D2A) [TLLKTIIKV (SEQ ID NO: 66)]

peptide exchange yield: 20 to 50%
Binder: LLAASVALA (source gene NPTX2) [LLAASVALA (SEQ ID NO: 64)]

peptide exchange yield: 50 to 75%
Binder: VLAGPAFLVQL (source gene SLC47A1) [VLAGPAFLVQL (SEQ ID NO: 62)]

peptide exchange yield: 20 to 50%
Binder: VLADDHLIEV (source genes PDZK1P2, PDZK1, PDZK1P1) [VLADDHLIEV (SEQ ID NO: 76)]

peptide exchange yield: 20 to 50%
Binder: YSLEKVFGI (source gene MAGED2) [YSLEKVFGI (SEQ ID NO: 72)]

peptide exchange yield: 20 to 50%
Binder: SLMGILLRI (source gene CARD8) [SLMGILLRI (SEQ ID NO: 61)]

peptide exchange yield: 20 to 50%
Binder: YLMDEGAHL (source gene UGDH) [YLMDEGAHL (SEQ ID NO: 84)]

peptide exchange yield: 50 to 75%
Binder: IQWSIVPEV (source gene GRAMD4) [IQWSIVPEV (SEQ ID NO: 83)]

peptide exchange yield: 20 to 50%
Binder: KIPPVSPSI (source gene ARRDC3) [KIPPVSPSI (SEQ ID NO: 98)]

peptide exchange yield: 20 to 50%
B1: YVLTQPPSV (SEQ ID NO: 68) (peptide)
peptide: YVLTQPPSV
notes: source genes IGLV3-21, IGLV2-14, IGLJ3, IGLC1, IGLC2

peptide exchange yield: 50 to 75%
Binder: VLFELSKTV (source gene ATP11A) [VLFELSKTV (SEQ ID NO: 6)]

peptide exchange yield: 20 to 50%
Binder: KLNVAPLAV (source genes MZT2A, MZT2B) [KLNVAPLAV (SEQ ID NO: 100)]

peptide exchange yield: 20 to 50%
Binder: TLISELVQA (source gene CUL7) [TLISELVQA (SEQ ID NO: 97)]

peptide exchange yield: 50 to 75%
Binder: LLFDVHTTL (source gene C5orf42) [LLFDVHTTL (SEQ ID NO: 102)]

peptide exchange yield: 20 to 50%
Binder: SLIKHKIML (source gene ATP6V1A) [SLIKHKIML (SEQ ID NO: 77)]
